Assay results reported in patent publication US6264958.

Key:
[1] = target: recombinant human IL-6 (human)
[2] = target: murine IL-6 receptor (murine) (UniProt P22272)

% Inhibition of B9 cell proliferation driven by 10 pg/ml hIL-6 (MTT, Absorbance570) [1] [% inhibition] | Substance | % Inhibition of B9 cell proliferation driven by 10 pg/ml hIL-6 (MTT, Absorbance570) [2] [% inhibition] | % Inhibition of B9 cell proliferation driven by 1:40 vIL-6 sup (MTT, Absorbance570) [2] [% inhibition]
23.4 | monoclonal antibody directed against murine IL-2 (S4B6, Pharmigen) | – | –
– | functionally neutralizing monoclonal antibody directed against the murine IL-6R (D7715A7, Pharmigen) | 80 | 53.8
